One may read the stoichiometry N as a count of units in the complex or per binding partner.

Test [1] concerns the target Rho13 (Rhodonellum psychrophilum). Put plainly: SAXS; nominal 0.5 mg/mL enzyme (Ika2 0.51, Rho13 0.46, I3C6 0.46 mg/mL by Abs280), 25 °C, 1800 s; indirect Fourier transformation and fits to AlphaFold models; self-association.
Test [2] shares this target. Briefly: SEC; Superdex-200 Increase, 0.5 mL/min, Ni-NTA eluates after PD-10 desalting; 100 mM HEPES, 150 mM NaCl, 2 mM CaCl2 pH 6.5 or 50 mM MOPS, 50 mM NaCl, 2 mM CaCl2 pH 7.5; calibrated with lysozyme, carbonic anhydrase and BSA; self-association, monomer and dimer. Background: Size exclusion chromatography separates by hydrodynamic size, large species first.
Test [3] has the same target. Put plainly: SAXS; nominal 1 mg/mL enzyme (Ika2 1.00, Rho13 0.94, I3C6 0.87 mg/mL by Abs280), 25 °C, 1800 s; indirect Fourier transformation and fits to AlphaFold models; self-association.

In the case of Rho13 (enzyme), in test [1], the dimer concentration in the SAXS model fit came out at 0.29 mg/mL, the monomer concentration in the SAXS model fit was found to be 0.06 mg/mL, the n-mers (SAXS model fit) came to 1.83 and the n-mers (indirect Fourier transformation) was found to be 1.38. For the same substance, in test [2], the share of the combined peak area, dimer peak worked out at 26% and the stoichiometry N was 2. In test [3], this substance gave a dimer concentration in the SAXS model fit of 0.69 mg/mL, a monomer concentration in the SAXS model fit of 0.03 mg/mL, a n-mers (SAXS model fit) of 1.96 and a n-mers (indirect Fourier transformation) of 1.58.

For the origin of these results see article PMC11940188.
